One assay concerns the target antibody PGT128 (human). As to the kind of experiment: SPR.
The target of the next assay is antibody PGT135 (human). The assay can be described thus: SPR.

Among the data in paper PMC4084637 are Kd values, retold here.

Sequence of antibody PGT128 (human) (heavy, as listed by the source, chain 1 of 2): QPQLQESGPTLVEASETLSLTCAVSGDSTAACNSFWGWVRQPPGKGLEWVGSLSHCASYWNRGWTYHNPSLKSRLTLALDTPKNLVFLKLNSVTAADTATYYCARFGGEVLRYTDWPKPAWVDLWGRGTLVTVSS
Sequence of antibody PGT128 (human) (light, as listed by the source, chain 2 of 2): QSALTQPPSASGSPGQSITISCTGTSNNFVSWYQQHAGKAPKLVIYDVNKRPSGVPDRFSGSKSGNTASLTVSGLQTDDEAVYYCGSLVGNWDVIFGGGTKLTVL
Sequence of antibody PGT135 (human) (heavy, as listed by the source, chain 1 of 2): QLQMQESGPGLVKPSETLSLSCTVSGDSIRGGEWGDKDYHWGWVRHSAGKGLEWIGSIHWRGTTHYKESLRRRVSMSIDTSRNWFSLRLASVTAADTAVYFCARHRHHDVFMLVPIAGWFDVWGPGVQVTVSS
Sequence of antibody PGT135 (human) (light, as listed by the source, chain 2 of 2): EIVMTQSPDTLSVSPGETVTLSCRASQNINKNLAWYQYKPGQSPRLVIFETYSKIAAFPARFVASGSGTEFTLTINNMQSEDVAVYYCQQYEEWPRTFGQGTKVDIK

With “YU2 gp120 (from UniProt P35961 32-498) (natural protein)”, the results for the Kd in the assay with antibody PGT128 (human) and with antibody PGT135 (human) were 11 nM and 18 nM, respectively.
